The test addresses Spike protein of the COVID-19 Spike-ACE2 Binding Assay Kit (Raybiotech) (SARS-CoV-2) (UniProt P0DTC2).

The IC50 is the concentration needed to halve the response being measured.

“human SAT Nb-Fc control VH-Ab-8 (HAb8-S) (Fc fusion)” yielded an IC50 of 0.079 nM.

The values above are taken from patent publication US20260150817A1.
